Test results reported in PMC6277172 (Protein Engineering, Design and Selection, 2018).

Target: N-terminal domain of MDM2 (M6-N125) (UniProt Q00987 6-125)
Experiment: fluorescence polarisation

N-terminal domain of MDM2 (M6-N125), sequence (Q00987 6-125): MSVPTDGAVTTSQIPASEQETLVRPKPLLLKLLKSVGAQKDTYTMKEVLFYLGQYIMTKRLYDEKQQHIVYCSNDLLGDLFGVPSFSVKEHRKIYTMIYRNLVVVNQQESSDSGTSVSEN

- binding result: binds
Binder: {FAM}-RFMDYWEGL-NH2 [FAM labeled 12-1 peptide]
